Measurements: US6887705B1, “Tyrosine phosphorylated cleavage furrow-associated proteins (PSTPIPs)” (Genentech, Inc., priority 1997, dated 2005)
Entries after “also recorded” stand apart in the source; their conditions may differ. Where two headings read alike, the source gives them in different places.

B1: PSTPIP: murine PST Phosphatase Interacting Protein, 415 residues (SEQ ID NO:1) (protein)
chain: MMAQLQFRDAFWCRDFTAHTGYEVLLQRLLDGRKMCKDVEELLRQRAQAEERYGKELVQIARKAGGQTEMNSLRTSFDSLKQQTENVGSAHIQLALALREELRSLEEFRERQKEQRKKYEAIMDRVQKSKLSLYKKTMESKKAYDQKCRDADDAEQAFERVSANGHQKQVEKSQNKAKQCKESATEAERVYRQNIEQLERARTEWEQEHRTTCEAFQLQEFDRLTILRNALWVHCNQLSMQCVKDDELYEEVRLTLEGCDVEGDINGFIQSKSTGREPPAPVPYQNYYDREVTPLIGSPSIQPSCGVIKRFSGLLHGSPKTTPSAPAASTETLTPTPERNELVYASIEVQATQGNLNSSAQDYRALYDYTAQNSDELDISAGDILAVILEGEDGWWTVERNGQRGFVPGSYLEKL
modifications: Mus Musculus
B2: W232A mutant of PST PIP, C-terminal FLAG (other)
chain: MMAQLQFRDAFWCRDFTAHTGYEVLLQRLLDGRKMCKDVEELLRQRAQAEERYGKELVQIARKAGGQTEMNSLRTSFDSLKQQTENVGSAHIQLALALREELRSLEEFRERQKEQRKKYEAIMDRVQKSKLSLYKKTMESKKAYDQKCRDADDAEQAFERVSANGHQKQVEKSQNKAKQCKESATEAERVYRQNIEQLERARTEWEQEHRTTCEAFQLQEFDRLTILRNALAVHCNQLSMQCVKDDELYEEVRLTLEGCDVEGDINGFIQSKSTGREPPAPVPYQNYYDREVTPLIGSPSIQPSCGVIKRFSGLLHGSPKTTPSAPAASTETLTPTPERNELVYASIEVQATQGNLNSSAQDYRALYDYTAQNSDELDISAGDILAVILEGEDGWWTVERNGQRGFVPGSYLEKLDYKDDDDK
notes: In vitro translated or expressed in COS cells; also called W232A PST PIP; PST PIP with an alanine replacement mutation at tryptophan232

Columns and labels:
[1] = tested on: PSTPIP tyrosine phosphorylation; test: Tyrosine phosphorylation of PSTPIP in COS cells co-transfected with V-src; assay type: cell-based; details: COS cells
Method: Baf3 cells were lysed in 1% Triton, 50 mM HEPES. 10% glycerol and 5 mM EDTA containing 1 μg/ml aprotinin, PMSF, leupeptin and pepstatin were 1 mM Sodium Vanadate and 10 mM Iodoacetic acid. Cells were treated with 0.1 mM Pervanadate for 4 hours before lysis. Immunoprecipitations were performed in the vanadate-containing lysis buffer using 1 μg/ml anti-PSTPIP polyclonal antibody and 400 μg of lysate protein at 4° C. overnight. Western blots were performed using 1 μg/ml affinity purified anti-PSTPIP or 1:5000 dilution of commercial 4G10 anti-phosphotyrosine monoclonal (Upstate Biotech). Signal was detected by HRPO-ECL reagents (Pierce). The C221-S mutant was as previously described (Cheng et al., (1996) supra). The PTP HSCF D197-A mutant was generated using PCR. Mutagenesis primer D197A.F ([…]) (SEQ ID NO:24), corresponding to nucleotide 591, and primer D197A.R ([…]) (SEQ ID NO:25) which corresponds to the stop codon, were used in PCR to generate a fragment that could be cut with Mscl and XbaI. pRK.HA.38 WT, a plasmid which encoded the wild type enzyme under the control of the cytomegalovirus promoter (Cheng et al., (1996) supra), was digested with Clal and Mscl and the resulting 600 bp fragment was ligated with the Mscl-Xbal PCR fragment into the Clal and Xbal sites of the pRK.tkneo. A plasmid encoding the V-src oncogene under the control of the SV40 early promoter was the kind gift of Dr. Art Levinson (CEO-Genetech, Inc.). NIH 3T3 cells and the COS-7 cells were cultured in high glucose DMEM supplemented with 10% FBS, 2 mM L-Glutamine, 10 mM HEPES pH 7.2 and pen-strep.
(§1) COS-7 cells were transfected by electroporation. Briefly, 1.5×10^6 COS-7 cells were mixed with 24 μg total DNA in PBS and electroporated at 960 μF, […] (Bio-Rad™ Gene Pulsar™). Following electroporation, cells were seeded in 10 cm dishes and incubated for 3 days. 10-cm dishes of transfected COS cells were washed twice with ice-cold PBS, and lysed in 1 ml of M-RIPA (50 mM Tris 7.4, 1% NP40, 0.25% DOC, 150 mM NaCl, 1 mM sodium ortho-vanadate, 1 mM NaF plus Complete™ Protease Inhibitors (Boehringer Mannheim)). Lysates were incubated for 15 minutes with 100 μl UltraLink Immobilized Protein A/G™ (Pierce) at 4° C., followed by centrifugation for 5 minutes. Supernatants were collected and stored at −70° C. or directly immunoprecipitated. 5 μg of M2 or 12CA5 was added to 500 μl of lysate and incubated overnight at 4° C. Ultralink Protein A/G™ was added and incubation continued for 2 hours at 4° C. The immune complexes were washed 3 times with M-RIPA. The proteins were subjected to SDS-PAGE and transferred to nitrocellulose in 1X Transfer Buffer™ (Novex). Immunoblots were blocked overnight at 4° C. in 3% milk/PBS. To detect Flag-tagged PIP, blots were incubated with 10 μg/ml Bio-M2 (Biotinylated anti-FLAG monoclonal Ab, KODAK) followed by incubation in 10 μg/ml streptavidin-HRP (UBI). To detect HA-tagged PTPhscf, blots were incubated in anti-(HA)-peroxidase (Boehringer Mannheim) as per manufacturer's instructions. To detect phosphotyrosine, blots were incubated in HRP-conjugated 4G10 (anti-phosphotyrosine monoclonal, UBI) as per manufacture's instructions.
COS cells were transfected with a constant amount of either the wild type of W232A mutant of PST PIP and cotransfected with increasing amounts of a plasmid encoding the v-Src tyrosine kinase (Spencer et al, (1997), supra). Plasmid concentrations were equalized with an empty vector containing the CMV promoter. After 48 hours, lysates were prepare and immunoprecipitated with anti-FLAG monoclonal antibody. Precipitates were run on SDS polyacrylamide gels, blotted, and probed with either anti-FLAG antibody or anti-phosphotyrosine antibody as previously described (Spencer et al, (1997), supra). Bound antibodies were visualized using enhanced chemiluminescent reagents.

[2] = tested on: PST PIP - PTP HSCF association; test: Coprecipitation of PST PIP and PTP HSCF from co-transfected COS cells; assay type: cell-based
Method: as §1
In vitro binding analyses between various PTP HSCF and PST PIP constructs were performed as previously described (Spencer et al, (1997), supra). Briefly, plasmids were transcribed and translated in vitro using the TnT Rabbit Reticulocyte Lysate System (Promega). Samples were diluted in 50 mM HEPES, pH 7.2, 1% triton X-100, 10% glycerol, 100 mM NaCl, and 2 μg/ml each of leupeptin, pepstatin, aprotinin and PMSF (lysis buffer). Samples were than reacted with GST fusion proteins at various concentrations, and the bound proteins were centrifuged using glutathione-sepharose beads and analyzed on SDS polyacrylamide gels. C-terminally-derived peptide inhibition studies were performed by incubating the GST fusion protein binding reactions in the presence of 10 μg/ml of the indicated peptides. Peptides were produced by FMOC-protected amino acids as previously described (Spencer et al, (1997), supra). In vivo interactions between various forms of PTP HSCF and PST PIP were also performed as previously described (Spencer et al, (1997), supra). Briefly, COS cells were transfected with various constructs, and after 48 hours, lysates were prepared and immunoprecipitated with antibodies to either the FLAG epitope contained at the C-terminus of PST PIP or an HA epitope contained at the N-terminus of PTP HSCF. The resultant blots were probed with anti-FLAG to detect PST PIP, anti-HA to detect PTP HSCF or anti-phosphotyrosine to detect levels of this modified amino acid in each protein.

[3] = tested on: CHO cells; test: Confocal microscopy of PST PIP forms expressed in CHO cells; assay type: cell-based, Chinese hamster; details: transfected CHO cells
Method: Confocal microscopy was performed as previously described (Spencer et al, (1997), supra). Briefly, CHO cells in chamber slides were transfected using Lipofectamine and the indicated plasmids. 48 hours later, cells were fixed in formaldehyde and stained with an anti-FLAG epitope specific antibody (Kodak) and Fluorescein-Phalloidin (Molecular Probes). Anti-Flag stained cells were washed and stained with Cy3-conjugated sheep anti-mouse IgG. Stained cells were observed using Molecular Dynamics Confocal Microscope™ (2001) and analyzed with ImageSpace™ software (Molecular Dynamics).

Molecule | tyrosine phosphorylation of PST PIP forms in the presence of dominant negative PTP HSCF C-S (substrate trapping) ([1]; listed as PST PIP wt) | tyrosine phosphorylation of PST PIP forms in the presence of dominant negative PTP HSCF C-S (substrate trapping) ([1]; listed as wild type PST PIP) | in vivo association (coprecipitation) of PST PIP and PTP HSCF ([2]; listed as PST PIP wt) | in vivo association (coprecipitation) of PST PIP and PTP HSCF ([2]; listed as wild type PST PIP) | cellular localization of PST PIP forms (assay for correct folding) [3] | efficiency of tyrosine phosphorylation in the presence of v-Src versus wild type [1] | tyrosine phosphorylation of PST PIP forms in the presence of dominant negative PTP HSCF C-S (substrate trapping) [1] | levels of phosphotyrosine in mutant versus wild type PST PIP, densitometry ([1]; increasing v-Src plasmid) | in vivo association (coprecipitation) of PST PIP and PTP HSCF [2]
B1 | hyperphosphorylated | enhanced tyrosine phosphorylation | found in a complex with precipitated PTP HSCF | in vivo association of the proteins | predominantly co-localized with the cortical actin cytoskeleton | – | – | – | –
B2 | – | – | – | – | indistinguishable from the wild type protein | significantly more efficiently tyrosine phosphorylated | not hyperphosphorylated | 2-3 fold | complete lack of in vivo association; also recorded: neither coprecipitated with PTP HSCF
